Results as given in paper PMC3416805.
Several values for one entry are separate records, joined by “and”; a condition that tells them apart may be missing. Equal entries are not always repeated.

Target: endogenous ASR1 from tomato fruit nuclei (tomato (endogenous in tomato fruit)) (UniProt Q08655)
Assay: cross-linking; formaldehyde crosslinking of ground tomato fruit pericarp, nuclei purified, nuclear proteins passed over a Ni2+ column, SDS-PAGE and immunoblot with anti-ASR1 antiserum

percent of nuclear ASR1 in a monomeric form: > 90%
stoichiometry N: 2 and 3
Substance: endogenous ASR1 from tomato fruit nuclei (from UniProt Q08655 1-115) (natural protein)
